Results reported in PMC3087300 (Bioorganic & medicinal chemistry, 2009).
Where two headings read alike, the source gives them in different places.

Target: PSA (Homo sapiens, UniProt P07288)
Sequence (P07288 25-261): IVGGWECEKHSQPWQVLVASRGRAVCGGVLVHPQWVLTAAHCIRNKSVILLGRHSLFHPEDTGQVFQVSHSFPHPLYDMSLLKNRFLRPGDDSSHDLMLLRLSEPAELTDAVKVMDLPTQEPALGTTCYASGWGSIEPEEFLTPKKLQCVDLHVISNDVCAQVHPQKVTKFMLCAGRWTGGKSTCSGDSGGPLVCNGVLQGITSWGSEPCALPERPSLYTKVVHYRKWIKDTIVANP

Question: For (Re) SAAC-SSQn(boro)L [Compound 47], which Ki (P2-P3 screen boronic acids and PSA imaging agents, Table 2) is on record?
Answer: Its Ki is 28.4 ± 2.1 nM.

Question: What about the Ki (read-out: Ki for PSA, boronic acid inhibitors) of the same substance?
Answer: The Ki was 28 nM.
